The target in the test is T1, human ALK epitope peptide (amino acids 391-406 of the ALK protein) (human).
T1 construct: the underscore is a remnant of the underlining; In the yeast screen it was fused to LexA; in the ELISA it is called the Alk LBD peptide; also called Alk LBD peptide; AIk LBD
T1 peptide: GRIGRPDNPFRVALEY
Description: ELISA (Fig. 5). On the technique in general: An ELISA detects its analyte on a solid surface through an enzyme-linked reagent.

B1: scFv 28.11 (scFv)
scFv: QSVLTQPPSVSAAPGQKVTISCSGSTSNIGDNYVSWYQQLPGTAPQLLIYDNTKRPSGIPDRFSGSKSGTSATLGITGLQTGDEADYYCATWDNDKWGVVFGGGTKLEVLGGGGGSGGGGSGGGGSSGGGSEVQLVESGGGLVQPGGSLRLSCAASGFTFSSYAMSWVRQAPGKGLEWVSAIETSSGSTYYADSVKGRFTISRDNSKNTLYLQMNSLRAEDTAVYYCARDAWLDVLSDGFDYWGQGTLVTVSS
In the case of B1, the dissociation constant (Kd) is 2 to 3 nM.

Usually Kd stands for a measure of binding affinity in units of concentration. Low readings indicate tighter binding, high ones weaker binding.
